Experimental data: patent US20240075139A1

Target: EBOV Mayinga (GenBank: NC_002549) (Zaire Ebolavirus (EBOV Mayinga)) (UniProt Q05320)
Experiment: cell-based or functional assay

UniProt Q05320, sequence (Q05320 33-676 limits assumed): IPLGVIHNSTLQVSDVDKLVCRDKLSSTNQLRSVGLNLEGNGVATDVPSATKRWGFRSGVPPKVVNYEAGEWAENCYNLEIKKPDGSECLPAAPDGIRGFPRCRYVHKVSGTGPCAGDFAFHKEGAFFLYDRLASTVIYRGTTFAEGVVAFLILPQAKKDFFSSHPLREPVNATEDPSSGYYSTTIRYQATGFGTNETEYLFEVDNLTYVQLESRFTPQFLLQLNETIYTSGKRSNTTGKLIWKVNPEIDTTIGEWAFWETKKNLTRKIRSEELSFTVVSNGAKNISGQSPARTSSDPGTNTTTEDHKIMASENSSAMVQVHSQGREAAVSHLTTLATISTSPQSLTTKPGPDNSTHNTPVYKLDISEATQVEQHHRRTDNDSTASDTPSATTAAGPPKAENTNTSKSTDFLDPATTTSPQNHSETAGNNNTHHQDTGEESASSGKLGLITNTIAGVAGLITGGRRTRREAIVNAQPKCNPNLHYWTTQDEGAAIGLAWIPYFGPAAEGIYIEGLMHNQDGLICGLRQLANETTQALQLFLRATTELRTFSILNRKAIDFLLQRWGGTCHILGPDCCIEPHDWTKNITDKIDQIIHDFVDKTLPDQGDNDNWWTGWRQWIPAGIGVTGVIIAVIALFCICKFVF

Binder	neutralization concentration (GMC, CPE reduction on Vero C1008 cells) [µg/mL]
4T0243 (antibody, V domains shown) VH: QVQLQESGPGLVKPSETLSLTCTVSGGSLSTYYWNWIRQPPGKGLEWIGYIYYSSLPKYSPTLKSRITISVDTSKNQFSLKLSSVTAADTAVYYCARAPRGYSSGKYNYYGLDVWSQGTTVTVSS VL: SYELTQPPSVSVSPGHTATITCSGDALSKQFAYWYQQKPGQAPVLVISKDTERPSGIPGRFSGSSSGPTATLTISGVQAEDEADYYCQSADSSGGYYVFGSGTRVTVL	0.011
3T0468 (antibody, V domains shown) VH: EVQLVESGGHLIQPGGSLRLSCAASGFTFRIYDMHWVRQGRRKGLEWVSAIGAAGDTYYSDSVKGRFTISRENAKSSLYLQMNSLSVGDTAVYYCARAAFGAVYYDNWGQGILVTVSS VL: EIVLTQSPGTLSLSPGERATLSCRASENVDSRFLVWYQQKVGQAPRLLIYGASRRATGIPDRFSGSGSGTDFALTISRLEPEDLAVYYCQQYGRSPITFGQGTRLEIK	2.1
4T0764 (antibody, V domains shown) VH: QVQLQESGPGLVEPSETLSLTCTVSGASISSLFWSWIRQPPGKGLEWIGYIHSDGSTNYNPFLKSRVTISIDTSQNQFSLRLTSVTAADTAVYFCARGLLGSQDSWGQGTLVTVSS VL: QSALTQPASVSGSPGQSITISCTGTSSDVGGYNYVSWYQQYPGKAPKLVIYEVTNRPSGVSNRFSGSKSGNTASLTISGLRAEDEADYHCSSYRTRNTHVIFGGGTKLTVL	0.88
1T0451 (antibody, V domains shown) VH: QVQLVQSGAEVKKPGASVKISCEASGYNFNGYVIDWVRQAPGQRLEWMGWINPGNGNTKFSPKFQGRVTFTRAASASTAYMELSSLTSEDTALYFCARGRGTSYYYAFDVWGQGTTVTVSS VL: DIQMTQFPSSLSASVGDRVTISCRASQNISNYLNWYQQKPGKAPKFLIYAASNLQSGVPSRFSGSGSGTGFTLTISNLQPEDFAIYYCQQTYRSPLYTFGQGTKLEIK	2.5
1T0455 (antibody, V domains shown) VH: EVQLVESGGGLVKPGESLRLSCAVSGLTFSNAWMNWVRQAPGKGLEWVGRIKSKSDGGAADYAAPVNARFTISRDDSKKTLYLQMNSLKTEDTGFYYCTTLYHSGQGTLVTVSS VL: QSVLTQPPSVSGAPGQRVTISCTGSSSNIGAGYDVHWYQQLPGTAPKFVIYGNNNRPSGVPDRFSGSKSGTSASLAITGLQVEDEGDYYCQSYDSRLSDHVVFGGGTKLTVL	1.77
4T0726 (antibody, V domains shown) VH: QVQLVQSGVEVKEPGASVRVSCKASGYTFTHYGITWVRQAPGQGLEWMGWISGYNGNTDYAQKFQGRITMTTDTSTSTAYMELGRLTSDDTAVYYCARTITMILLGWFDPWGQGTLVTVSS VL: EIVLTQSPGTLSLSPGERATLSCRASQSVSSNYLAWYQQKPGQAPRLLISGASNRATGLPDGFSGSGSGTDFTLTISRLEPEDFAVFFCQQYGTSPLTFGPGTKVDIK	2.56
1T0201 (antibody, V domains shown) VH: EVQLVESGGGLVKPGGSLRLSCAAAGFSFSKAWMNWVRQAPGKGLEWVGRIKSKTDGGTTDYTAPVKGRFIISRDDSKNMLYLQMNSLKAEDTAVYWCTTRVDMEWGKYGTDVWGQGTTVTVSS VL: QSVLTQPPSVSGAPGQRVTISCTGSSSNIGAGYDVHWYQKLPGTAPKLLIYDKNIRPSGVPDRFSGSKSGVSASLAITGLQAEDEADYYCQSYDSRLSDSWVFGGGTKLTVL	2.63
5T0451 (antibody, V domains shown) VH: EVQLVESGGGLVKPGGSLRLSCAASGFTFTNAWMNWVRQAPGKGLEWIGRIKSKGDGGTADHAAPVRGRFIISRDDSKQMLYLQMTGLKSDDTAVYYCTRGPYDNFSGWRDYWGQGTLVTVSS VL: QSVLTQPPSVSGAPGQRVTISCTGSGSNIGAGYDVQWYQQHPGTAPKVLIYGNNKRPSGVPDRFSGSKSGTSASLAITGLQAEDEAHYYCQSYDARLRDSWVFGGGTQLTVL	1.05
5T0209 (antibody, V domains shown) VH: EVQLVDSGGGLVKPGGSLRLSCAASGFTFSKAWMSWVRQAPGKGLEWVGRIKSRTDGGTTDYAAPVRGRFTISRDDSKNTLFLQMNSLKPEDTAIYYCATDYYESRGYWGQGTLVTVSS VL: QSVLTQPPSVSGAPGQRVTISCTGSSSNIGAGYDVNWYQQIPGTAPKLLIYGNNKRPSGVPDRFSGSKSGTSVSLAITGLQAEDEADYYCQSYDSRLSDHWVFGGGTKLTVL	1.77
4T0452 (antibody, V domains shown) VH: EVQLVESGGGLVKPGGSLRISCAASGFSFSNAWMNWVRQAPGKGLEWVGRIKSVSDGGPIHYAAPVKGRFTISRDDSKKMLYLQMNSLKVDDTAVYYCATEPRGYDWGWGQGTLVTVSS VL: QSVLTQPPSVSGAPGQRVTISCTGSYSNIGAGYDVYWYQQFPGTAPKLLIYGNTNRPSGVPDRFSGSRSGTSASLAITGLQAEDEAHYYCQSYDSRLRDNWVLGGGTKLTVL	0.88
5T0202 (antibody, V domains shown) VH: EVQLVESGGGLVKPGGSLRLSCGASGFSFNDAWMNWVRQAPGKGLEWVGRIKSKADGGGSDTAAPVKGRFIISRDDSKNTLFLQMERLKSEDTGVYYCTTSLNIWGTYRDCWGQGTLVTVSS VL: QSVLTQPPSVSGAPGQRVTISCTGSYSNIGAGYDVRWYQQLPETAPKLLIYGNNNRPSGVPDRFSGSKSGTSASLAITGLQAEDEADYYCQSYDSRLRDSWVFGGGTRLTVL	2.5
3T0553 (antibody, V domains shown) VH: QVQLVESGGGVVQPGRSLRLSCAASGFTFTTCAMHWVRQAPGKGLEWVSVMWYDGSREYYADSVKGRFTISRDNSKNTLYLEMQSLRAEDTAVYYCARGGDLLVEVDSTDYYGLDVWGQGTTVTVSS VL: DIQMTQSPSAMSASVGDRVTITCRASQGISHSLAWFQQKPGKVPKRLIYSASTLQSGVPSRFSGSGSGTEFTLTISSLQPEDFATYYCLQHNRYPWTFGQGTKVEIK	1.31
3T0611 (antibody, V domains shown) VH: EVQLVESGGNLVQPGGSLRLSCAASGFTFRSYSMNWVRQAPGKGLEWVSYISSSASIIHYAESVQGRFTISRDNAKNSLFLQMNSLRAEDTAVYYCAGILDDYRDYGYDYWGQGTLVTVSS VL: SYELTQPPSVSVSPGQTARITCSGDALPKQYAYWYQQRPGQAPVLVIYKDIERPSGIPERYSGSSSGAIVTLTISGAQAEDEADYYCQSSDNNGSYRVMFGGGTKLTVL	0.78
3T0338 (antibody, V domains shown) VH: EVQLVESGGALVKPGGSLRLSCAASGFSFKTAWMNWVRQAPGKGLEWVGRIKSRADGGTSDYSASVKGRFTFSRDDSKNTLYLQMTSLKTEDTGMYYCTTLNLGGGFPGEWRSVWGQGTTVTVSS VL: QSVLTQPPSVSGAPGQRVTISCTGSYSNIGSGYDVLWYQQLPGAAPKLLIYGNNNRPSGVPDRFSGSKSGTSASLAITELQAEDEGDYYCQSYDSRLRDSWVFGGGTRLTVL	1.06
4T0784 (antibody, V domains shown) VH: QVQLVESGGGVVQPGRSLRLSCAASGFTFSTYGVHWVRQAPGKGLEWVGVIWYDGSKKYYADSVKGRFTISRDNSKNTLYLQMNSLRAEDAAVYRCVRGGDLLLLPDSIDYYGMDVWGQGTLVTVSS VL: KDHDPQAPVSLSASVGDRVTITCRASQGIRNDLGWYQQKPGKAPKRLIYAASSLQSGVPSRFSGSGSGTEFTLTISSLQPEDFATYYCLQHNTYPFSFGPGTKVDIK	1.86
3T0258 (antibody, V domains shown) VH: QVQLVQSGAEVKQPGASVKVTCKASGSTRSSYDLIWVRQAPGQGLELMGRVNTHNGNTDYAQKFQGRVTMTTDTSTTTAHMELRNLRSDDTAVYYCAWRRSSWFAFDVWGQGTAVTVSS VL: EIVLTQSPGTLSLSPGERGTLSCRASQSISGNYLGWYQQSPGQAPRLLIYGASNRATGVPDRFSGSGSGTDFTLTISRLEPEDFAVYYCQQYVSSPYTFGQGTKLEIK	0.06
5T0223 (antibody, V domains shown) VH: EVQLVESGGGLVKPGGSLRLSCEASGFTFRNTWMNWVRQAPGKGLEWVGRIKSNTDGGTADYAAPVKGRFTISRDDSKSTLFLEMISLRTEDTGFYYCTKGGPGAHSWGLGTLVTVSS VL: QSVLTQPPSVSGAPGQRVTISCTGSSSNIGAGYDVQWYQQLPGTAPKVLIYHNTNRPSGVPDRFSGSRSGTSASLVITGLQAEDEADYYCQTYDSRLSDHWVFGGGTKLTVL	1.86
4T0444 (antibody, V domains shown) VH: EVQLVVSGGGLVQPGGSLRLSCAASGFTLKSYDIHWVRQRPGEGLEWVAAIGAAGDTYFSGSVKGRFTISRENARNSLYLQMNSLGAGDTAIYYCARARFGDLALDYWGQGILVTVSS VL: EIVLTQSPGTLSLSPGERATLSCRSSQSVSSNSLAWYQQKPGQAPRLLIYGASSRAAGIPDRFSGSGSGTDFTLTISRLQPEDFAVFFCHQYSSSPLTFGGGTKVEIK	1.2
1T0227 (antibody, V domains shown) VH: EVQLVESGGGLVKPGGSLRLSCAASGFTFRNAWMNWVRQAPGKGLEWVGRIKSRADGGPTDYAAPVKGRFTISRDDSKNTLYLQMNSLKSEDTAVYYCTTHVPDYNSAYYWVYWGQGTLVTVSS VL: QSVLTQPPSVSGAPGQRVTISCTGSSSNIGAGYDVYWYQQLPGTAPKLIIYGNNNRPSGVPDRFSASKSGPSASLAITGLQAEDEADYYCQSYDIRLSDNYVFGTGTKVTVL	1.86
3T0253 (antibody) heavy: EVQLVESGGGLVKPGRSLRISCAASGITFNKAWMNWVRLAPGKGLEWVGRIKSNGDGGKRDYAAPVTGRFTISRDDSKNTLYLQMNSLKTEDTAVYFRTTRHHRGMDVWGQGTTVTVSS light: QSVLTQPPSVSGAPGQRVTISCTGSSSNIGAGYDVHWYQHLPGAAPKLLIYGDGSRPSGVPDRFSASKSGTSASLAITGLQAEDEADYYCQSYDSSLSDAVVFGGGTKLTVL	1.31
5T0337 (antibody, V domains shown) VH: EVQLVESGGGLVKPGGSLRISCAASGFTFNNAWMNWVRQSPGKGLEWVGRIKSKSDAGTTDYAAPVKGRFIISRDDSKKTLFLQMNSLKIEDTAIYFCMTGFEHTYSYFDLWGRGTQVTVSS VL: QSVLTQPPSVSGAPGQRVIISCIGGSSNIGAGYDVKWYQQLLPGTAPRLLIYGNTNRPSGVPDRFSGSKSGTSASLAITGLQAEDEADYYCQSYDSRLRDAWVFGGGTKLTVL	2.21
